Measured values published in IntAct's records for PubMed 18337722.

B1: Ataxin-1 (Homo sapiens), P54253 (parent)
chain: MKSNQERSNECLPPKKREIPATSRSSEEKAPTLPSDNHRVEGTAWLPGNPGGRGHGGGRHGPAGTSVELGLQQGIGLHKALSTGLDYSPPSAPRSVPVATTLPAAYATPQPGTPVSPVQYAHLPHTFQFIGSSQYSGTYASFIPSQLIPPTANPVTSAVASAAGATTPSQRSQLEAYSTLLANMGSLSQTPGHKAEQQQQQQQQQQQQHQHQQQQQQQQQQQQQQHLSRAPGLITPGSPPPAQQNQYVHISSSPQNTGRTASPPAIPVHLHPHQTMIPHTLTLGPPSQVVMQYADSGSHFVPREATKKAESSRLQQAIQAKEVLNGEMEKSRRYGAPSSADLGLGKAGGKSVPHPYESRHVVVHPSPSDYSSRDPSGVRASVMVLPNSNTPAADLEVQQATHREASPSTLNDKSGLHLGKPGHRSYALSPHTVIQTTHSASEPLPVGLPATAFYAGTQPPVIGYLSGQQQAITYAGSLPQHLVIPGTQPLLIPVGSTDMEASGAAPAIVTSSPQFAAVPHTFVTTALPKSENFNPEALVTQAAYPAMVQAQIHLPVVQSVASPAAAPPTLPPYFMKGSIIQLANGELKKVEDLKTEDFIQSAEISNDLKIDSSTVERIEDSHSPGVAVIQFAVGEHRAQVSVEVLVEYPFFVFGQGWSSCCPERTSQLFDLPCSKLSVGDVCISLTLKNLKNGSVKKGQPVDPASVLLKHSKADGLAGSRHRYAEQENGINQGSAQMLSENGELKFPEKMGLPAAPFLTKIEPSKPAATRKRRWSAPESRKLEKSEDEPPLTLPKPSLIPQEVKICIEGRSNVGK
partner: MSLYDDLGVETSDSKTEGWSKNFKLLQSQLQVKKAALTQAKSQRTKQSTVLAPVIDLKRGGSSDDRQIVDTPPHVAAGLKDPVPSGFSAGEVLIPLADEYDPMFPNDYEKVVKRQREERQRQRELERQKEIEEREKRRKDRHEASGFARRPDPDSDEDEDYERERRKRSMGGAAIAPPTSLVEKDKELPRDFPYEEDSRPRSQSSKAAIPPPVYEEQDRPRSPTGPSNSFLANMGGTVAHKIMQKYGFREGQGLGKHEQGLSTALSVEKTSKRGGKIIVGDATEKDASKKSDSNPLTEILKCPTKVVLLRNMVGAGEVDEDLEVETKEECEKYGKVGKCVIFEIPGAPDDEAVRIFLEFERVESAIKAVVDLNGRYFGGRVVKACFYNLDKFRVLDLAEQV

Variants of: B1
Settings: with spf45_human RBM17, Q96I25

Row | Variant | effect of a mutation on the interaction
1 | S775A | disrupting interaction strength
